In article PMC3903627:

Molecular target: Luciferase-ArgBP2 P1 and EYFP-ArgBP2 P1 (BRET pair)
Assay: BRET
Details: HEK293T cells, one representative experiment, read off a plot

response (0.10 µg YFP fused protein, parent: est. 510): 190 mBu | response (0.20 µg YFP fused protein, parent: est. 670): 310 mBu | response (0.30 µg YFP fused protein, parent: est. 740): 390 mBu | response (0.40 µg YFP fused protein, parent: est. 790): 490 mBu | response (0.50 µg YFP fused protein, parent: est. 790): 570 mBu
Substance: Luciferase-ArgBP2 WT and EYFP-ArgBP2 WT (BRET pair) P497A; P500A
